{"source": "paper PMC5146963", "key": {"[1]": {"molecular_target": "T1, EcFrmR (Escherichia coli K12) (UniProt P0AAP3)", "T1 sequence": "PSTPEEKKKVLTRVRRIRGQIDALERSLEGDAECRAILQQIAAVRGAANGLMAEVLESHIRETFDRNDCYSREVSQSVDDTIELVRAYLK", "experiment": "BLI", "conditions": "BLItz, 50 mM Tris-HCl pH 8.0, 0.5 M NaCl, 20 C; 100 nM biotinylated DNA loaded on SA tips; EcFrmR concentrations as tetramer"}, "[2]": {"test_system": "EcFrmR (Escherichia coli K12)", "experiment": "BLI", "conditions": "BLItz, 50 mM Tris-HCl pH 8.0, 0.5 M NaCl, 20 C, 100 nM biotinylated DNA loaded on SA tips, EcFrmR concentrations as tetramer"}}, "note": "Where “and” joins values, the source holds several entries; their conditions need not be identical. Equal values may be shown once."}
{"substance": "GGCCTTCCCTGCCGATTAGCCCCCCCCCCTTTCCTCTTTGTTTTCCGACCACATTCACCGGATAAATTTTATTCTCCAGTGTTATATACTATAGGGGGGTATGCATTGACATATAGAATACCCCCCTATAGTATATTGCATGCAGATGATGAGGTGCGAAATGCCCAGTACTCCGGAAGAGAAGAAA (double strand) [Pfrm (frmRAB promoter)]", "values": [{"measurement": "Kd", "setting": "[1]", "value": "220 nM and 520 nM"}]}
{"substance": "GTTAAGGGCTCAGAATAATCACATTATTTTTTCTCCTAACCATAAAGGATTAGTTTATCGGCGTTAATCTTTTCTCATACACTATCGGGTTAGGGAAAATATCTGGTGTTGGGGACAGAGTCAGCAGCGTATTAGTTGAATGCTTAATATCAGGCTGCTGAATTGTCAGCACTGTGTTTGCGAAGAGGATGCGAAATAAATGAACCCGGTTGATCGTCCACTATTAG (double strand) [PydhY]", "values": [{"measurement": "Kd", "setting": "[1]", "value": 3600, "unit": "nM"}]}
{"substance": "Pfrm (frmRAB promoter)", "values": [{"measurement": "Kd", "setting": "[2]; Zn(II)4-loaded tetramer, kf 5660 M-1 s-1, kr 0.003 s-1", "value": 520, "unit": "nM"}, {"measurement": "Kd", "setting": "[2]; no Zn, no HCHO, kf 13000 M-1 s-1, kr 0.0028 s-1, text ~220, upper limit", "value": 220, "unit": "nM"}]}
{"substance": "PydhY", "values": [{"measurement": "Kd", "setting": "[2]; no Zn, no HCHO, kf 1950 M-1 s-1, kr 0.007 s-1, text ~3600", "value": 3600, "unit": "nM"}]}
